Test results: patent publication US20220143136A1, “USE OF ANNEXINS IN PREVENTING AND TREATING MUSCLE MEMBRANE INJURY” (NORTHWESTERN UNIVERSITY, priority 2018, published 2022)
“Also recorded” adds a separate entry of the source. Like-named read-outs stand apart in the source and are kept apart here.

How the values were obtained:
Sgcg-null mice [1] = experiment: Chronic injury, short-term chronic dosing and serum biomarker analysis; format: in vivo, mouse; conditions: for serum creatine kinase (CK) at day 14: 1 mg/kg once every three days for 14 days, vs PBS control
Experimental: Chronic Injury and biomarker analysis. […] Mice were injected once every 3 days for a period of 12 days. Serum was acquired as previously described (Demonbreun et al 2016a). Serum CK was analyzed for each mouse using the EnzyChrom Creatine Kinase Assay (catalog ECPK-100, BioAssay Systems) following the manufacturer's instructions. Lactate dehydrogenase was analyzed for each mouse using (LDH cytotoxicity kit MK401, Takara) following the manufacturer's instructions.
Serum collection and CK analysis.
Short-term chronic dosing regimen. […] An additional cohort of Sgcg-null mice had blood drawn as described above immediately prior to the first protein injection. Then, 1 mg/kg recombinant annexin A6 or annexin A2 (both produced by Northwestern's Protein Production Core) was injected into the right retro-orbital cavity of sedated mice, once every 3 days for a total of 5 injections and then blood drawn on day 14 post initial injection.

mdx/hLTBP4 myofibers = experiment: Laser-induced membrane injury, FM 4-64 dye uptake, dystrophic myofibers; format: cell-based, mouse; conditions: 25 μg/ml extracellular recombinant protein vs vehicle control, dystrophic (DMD model) myofibers
Experimental: For recombinant myofibers studies, myofibers were isolated from mdx/hLTBP4 mice as described above. Myofibers were incubated in Ringer's media with or without 25 μg/ml recombinant annexin A6 (5186-A6-050, R&D systems). FM 4-64 ([…]) was added to the myofibers just prior to imaging. Images were acquired and quantitated as described above. FM 4-64 area was measured using FIJI at imaging endpoint from a single slice near the middle of the z-stack. Z-stack step size (0.125 μm) was acquired from cap end to end.
Multiphoton laser injury and imaging. Fibers were subjected to laser-induced damage at room temperature using the Nikon A1R-MP multiphoton microscope. Imaging was performed using a 25×1.1 NA objective directed by the NIS-Elements AR imaging software. Green fluorescence protein (GFP) and FM 4-64 were excited using a 920 nm wavelength laser and emission wavelengths of 575 nm and 629 nm were collected respectively. To induce laser damage on isolated myofibers, a diffraction limited spot (diameter approximately 410 nm) was created on the lateral membrane of the myofiber using a 920 nm wavelength laser at 10-15% laser power for 1 second. […]
Multiphoton laser injury and imaging. […] Green fluorescence protein (GFP) and FM 4-64 were excited using a 920 nm wavelength laser and emission wavelengths of 575 nm and 629 nm were collected respectively. […]

Sgcg-null mice [2] = conditions: 1 mg/kg, 5 injections over 48 hours, 60 minutes downhill running, vs BSA control
Experimental: Serum collection and CK analysis. Mice were sedated (3% isoflurane, 0.8 l/min O2) and blood was collected by means of retro-orbital puncture with heparinized capillary tubes (20-362-566; Fisher Scientific, Waltham, Mass.) into Microtainer™ Gold Top Serum Separator (365967 Becton Dickinson, Franklin Lakes, N.J.) and centrifuged at 8,000×g for 10 minutes. The plasma fractions were frozen and stored at −80° C. Serum creatine kinase (CK) was analyzed in duplicate for each mouse using the EnzyChrom Creatine Kinase Assay (ECPK-100; BioAssay Systems, Hayward, Calif.) following manufacturer's instructions as described (Demonbreun A R, Allen M V, Warner J L, Barefield D Y, Krishnan S, Swanson K E, et al. Enhanced Muscular Dystrophy from Loss of Dysferlin Is Accompanied by Impaired Annexin A6 Translocation after Sarcolemmal Disruption. Am J Pathol. 2016; 186(6):1610-22). Results were acquired with the Synergy HTX multi-mode plate reader (BioTek®, Winooski, Vt.).
Sgcg-null mice were sedated (3% isoflurane, 0.8 l/min O2) and pre-exercise blood was collected by means of left retro-orbital puncture as described above. While sedated, mice were then injected 1 mg/kg recombinant annexin A6 (5186-A6-050, R&D systems) or PBS+1 mg/kg BSA into the right retro-orbital cavity at 9 am and 5 μm for 5 consecutive injection over 48 hours. […] Serum creatine kinase (CK) was analyzed as described above. […]

Anxa6^em1(GFP) myofibers = experiment: Laser injury of Anxa6em1(GFP) myofibers pretreated with recombinant annexin A6; format: cell-based, mouse; conditions: 10-40 μg/ml recombinant protein pretreatment vs control
Experimental: Myofiber isolation. Flexor digitorum brevis (FDB) fibers were isolated with methods that were described previously in (Demonbreun and McNally, 2015; Demonbreun et al., 2016b; DiFranco et al., 2009). Briefly, fibers were dissociated in 0.2% BSA plus collagenase type II (Cat #17101, Thermo Fisher Scientific, Waltham, Mass.) for 60 minutes at 37 degrees in 10% CO2. Fibers were then moved to Ringers solution and placed on MatTek confocal microscopy dishes (Cat #P35G-1.5-14-C, MatTek, Ashland Mass.).
Multiphoton laser injury and imaging. Isolated fibers were subjected to laser-induced damage at room temperature using the Nikon A1R-MP multiphoton microscope. Imaging was performed using a 25×1.1 NA objective directed by the NIS-Elements AR imaging software. Green fluorescence protein (GFP) and FM 4-64 were excited using a 920 nm wavelength laser and emission wavelengths of 575 nm and 629 nm were collected respectively. […] Fluorescence intensity and cap area were measured using Fiji (NIH).
For recombinant protein studies, myofibers were isolated from mice as described above. […] Cap size was assessed from acquired images in FIJI. […] Images were acquired and quantitated as described above. FM 4-64 fluorescence at endpoint was measured using FIJI.

[3] = 1 mg/kg retro-orbital once every 3 days for 12 days, vs control

B1: recombinant annexin A6: recombinant human annexin A6 protein with C-terminal HIS tag (5186-A6-050, R&D systems); mouse protein from Northwestern core in one cohort (protein, UniProt P08133 2-673, looked up)
Annexin A6: AKPAQGAKYRGSIHDFPGFDPNQDAEALYTAMKGFGSDKEAILDIITSRSNRQRQEVCQSYKSLYGKDLIADLKYELTGKFERLIVGLMRPPAYCDAKEIKDAISGIGTDEKCLIEILASRTNEQMHQLVAAYKDAYERDLEADIIGDTSGHFQKMLVVLLQGTREEDDVVSEDLVQQDVQDLYEAGELKWGTDEAQFIYILGNRSKQHLRLVFDEYLKTTGKPIEASIRGELSGDFEKLMLAVVKCIRSTPEYFAERLFKAMKGLGTRDNTLIRIMVSRSELDMLDIREIFRTKYEKSLYSMIKNDTSGEYKKTLLKLSGGDDDAAGQFFPEAAQVAYQMWELSAVARVELKGTVRPANDFNPDADAKALRKAMKGLGTDEDTIIDIITHRSNVQRQQIRQTFKSHFGRDLMTDLKSEISGDLARLILGLMMPPAHYDAKQLKKAMEGAGTDEKALIEILATRTNAEIRAINEAYKEDYHKSLEDALSSDTSGHFRRILISLATGHREEGGENLDQAREDAQVAAEILEIADTPSGDKTSLETRFMTILCTRSYPHLRRVFQEFIKMTNYDVEHTIKKEMSGDVRDAFVAIVQSVKNKPLFFADKLYKSMKGAGTDEKTLTRIMVSRSEIDLLNIRREFIEKYDKSLHQAIEGDTSGDFLKALLALCGGED
modifications: C-terminal His tag
notes: recombinant human annexin A6 protein with C-terminal HIS tag (5186-A6-050, R&D systems); mouse protein from Northwestern core in one cohort
Sgcg-null mice [1]; 1 mg/kg every 3 days for 14 days, compared to recombinant annexin A2, proteins from Northwestern's Protein Production Core
  serum CK fold change post/pretreatment (Day 14/Day 0): significantly reduced
Sgcg-null mice [1]
  serum creatine kinase (CK) at day 14: significantly decreased
Sgcg-null mice [1]; listed as rANXA6
  serum creatine kinase (CK) at day 14: lower
Sgcg-null mice [1]; [3]
  serum creatine kinase (CK): reduced
  serum lactate dehydrogenase (LDH): reduced
Sgcg-null mice [1]; 14-day dosing, vs PBS
  histology of gastrocnemius/soleus muscle: qualitatively less injury
mdx/hLTBP4 myofibers
  FM 4-64 fluorescence / dye uptake after laser injury: reduced
mdx/hLTBP4 myofibers; listed as rANXA6
  FM 4-64 fluorescence / dye uptake after laser injury: significantly smaller; also recorded: significantly less
Sgcg-null mice [2]
  fold change in serum CK post/pre running: reduced
Sgcg-null mice [2]; listed as rANXA6
  fold change in serum CK post/pre running: significantly reduced
Anxa6^em1(GFP) myofibers
  FM 4-64 dye uptake: reduction
  annexin A6GFP repair cap size: smaller; also recorded: reduced
